Patent US20220016254A1 (BEIJING QL BIOPHARMACEUTICAL, published 2022)
Changes are numbered by the printed parent chain.

T1: human beta-Klotho (human, UniProt Q86Z14 1-1044)
T1 sequence (looked up): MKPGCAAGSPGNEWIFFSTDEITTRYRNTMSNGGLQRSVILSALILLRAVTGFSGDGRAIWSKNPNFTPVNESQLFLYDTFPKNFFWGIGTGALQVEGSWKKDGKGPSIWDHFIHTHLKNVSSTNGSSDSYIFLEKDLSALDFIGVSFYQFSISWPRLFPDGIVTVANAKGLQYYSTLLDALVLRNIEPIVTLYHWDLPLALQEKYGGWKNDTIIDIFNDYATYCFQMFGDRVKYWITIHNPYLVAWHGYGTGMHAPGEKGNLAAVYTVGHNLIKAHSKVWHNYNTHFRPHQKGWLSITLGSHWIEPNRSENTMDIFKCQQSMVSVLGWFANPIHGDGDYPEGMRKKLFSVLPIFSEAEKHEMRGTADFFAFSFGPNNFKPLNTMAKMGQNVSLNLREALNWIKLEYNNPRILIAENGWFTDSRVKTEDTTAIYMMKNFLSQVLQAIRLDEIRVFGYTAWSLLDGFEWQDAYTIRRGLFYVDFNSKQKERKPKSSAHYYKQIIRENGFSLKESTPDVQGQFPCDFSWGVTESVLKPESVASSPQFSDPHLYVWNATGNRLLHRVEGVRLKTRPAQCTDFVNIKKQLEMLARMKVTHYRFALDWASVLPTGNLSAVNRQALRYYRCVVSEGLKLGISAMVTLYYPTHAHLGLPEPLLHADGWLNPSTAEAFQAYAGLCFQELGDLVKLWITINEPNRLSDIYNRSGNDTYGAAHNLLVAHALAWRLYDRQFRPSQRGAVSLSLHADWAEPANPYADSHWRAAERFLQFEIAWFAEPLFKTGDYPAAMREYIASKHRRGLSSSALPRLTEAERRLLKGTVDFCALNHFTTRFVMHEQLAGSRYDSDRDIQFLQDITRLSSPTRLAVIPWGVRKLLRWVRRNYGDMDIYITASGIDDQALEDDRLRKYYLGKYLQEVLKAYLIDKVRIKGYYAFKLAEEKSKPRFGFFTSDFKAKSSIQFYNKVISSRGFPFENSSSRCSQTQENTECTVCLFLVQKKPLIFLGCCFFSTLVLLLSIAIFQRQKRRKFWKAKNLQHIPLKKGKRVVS

B1: Compound 9 (ligand)
chain: HGEGTFTSDVSSYLEEQAAREFIAWLVRGGGGGGGSGGGGSGGGGSGGGGSHPIPDSSPLLQFGGQVRQRYLYTDDAQQTEAHLEIREDGTVGGAADQSPESLLQLRALRPGVIQILGVRTSRFLCQRPDGALYGSLHFDPEACSFRELLLEDGYNVYQSEAHGLPLHLPGQRSPHRDPAPRGPARFLPLPGLPPALPEPPGILAPQPPDVGSSDPLSLVGGSQGRSPSYKS
modifications: Moiety A (HOOC-(CH2)16-CO-gGlu-2XADO) on 231K of fusion polypeptide
B2: Compound 10 (ligand)
chain: B1 chain with G222K, K231E
modifications: Moiety A (HOOC-(CH2)16-CO-gGlu-2XADO) on 222K of fusion polypeptide
B3: Compound 11 (ligand)
chain: B1 chain with G221K, G222P, K231E
modifications: Moiety A (HOOC-(CH2)16-CO-gGlu-2XADO) on 221K of fusion polypeptide
B4: Compound 12 (ligand)
chain: B1 chain with G225K, K231E
modifications: Moiety A (HOOC-(CH2)16-CO-gGlu-2XADO) on 225K of fusion polypeptide
B5: Compound 13 (ligand)
chain: HGEGTFTSDVSSYLEEQAAREFIAWLVRGGGGAQPGAQPGAQPGAQPGAQPHPIPDSSPLLQFGGQVRQRYLYTDDAQQTEAHLEIREDGTVGGAADQSPESLLQLRALRPGVIQILGVRTSRFLCQRPDGALYGSLHFDPEACSFRELLLEDGYNVYQSEAHGLPLHLPGQRSPHRDPAPRGPARFLPLPGLPPALPEPPGILAPQPPDVGSSDPLSLVGKSQGRSPSYES
modifications: Moiety A (HOOC-(CH2)16-CO-gGlu-2XADO) on 222K of fusion polypeptide
B6: Compound 14 (ligand)
chain: B5 chain with A33Q, Q34E, A37Q, Q38E, A41Q, Q42E, A45Q, Q46E, A49Q, Q50E
modifications: Moiety A (HOOC-(CH2)16-CO-gGlu-2XADO) on 222K of fusion polypeptide
B7: Compound 15 (ligand)
chain: B1 chain with G222P
modifications: Moiety A (HOOC-(CH2)16-CO-gGlu-2XADO) on 231K of fusion polypeptide
B8: Compound 19 (ligand)
chain: B1 chain with S51K, G222K, K231E
modifications: Moiety A (HOOC-(CH2)16-CO-gGlu-2XADO) on 51K and 222K of fusion polypeptide
B9: Compound 20 (ligand)
chain: B1 chain with S51K, G221K, G222P, K231E
modifications: Moiety A (HOOC-(CH2)16-CO-gGlu-2XADO) on 51K and 221K of fusion polypeptide
B10: Compound 21 (ligand)
chain: B1 chain with S51K, G225K, K231E
modifications: Moiety A (HOOC-(CH2)16-CO-gGlu-2XADO) on 51K and 225K of fusion polypeptide
B11: Compound 22 (ligand)
chain: HGEGTFTSDVSSYLEEQAAREFIAWLVRGGGGGGGSGGGGSGGGGSGGGGKHPIPDSSPLLQFGGQVRQRYLYTDDAQQTEAHLEIREDGTVGGAADQSPESLLQLRALRPGVIQILGVRTSRFLCQRPDGALYGSLHFDPEACSFRELLLEDGYNVYQSEAHGLPLHLPGQRSPHRDPAPRGPARFLPLPGLPPALPEPPGILAPQPPDVGSSDPLSLVGGSQGRSPSYK
modifications: Moiety A (HOOC-(CH2)16-CO-gGlu-2XADO) on 51K and 231K of fusion polypeptide
B12: Compound 2 (ligand)
chain: B1 chain with R20K
modifications: Moiety A (HOOC-(CH2)16-CO-gGlu-2XADO) on 20K and 231K of fusion polypeptide
B13: Compound 39 (ligand)
chain: HGEGTFTSDVSSYLEEQAAREFIAWLVRGGGGGGGSGGGGSGGGGSGGGGSGGGGSGGGGSGGGGSGGGGKHPIPDSSPLLQFGGQVRQRYLYTDDAQQTEAHLEIREDGTVGGAADQSPESLLQLRALRPGVIQILGVRTSRFLCQRPDGALYGSLHFDPEACSFRELLLEDGYNVYQSEAHGLPLHLPGQRSPHRDPAPRGPARFLPLPGLPPALPEPPGILAPQPPDVGSSDPLSLVGKSQGRSPSYES
modifications: Moiety A (HOOC-(CH2)16-CO-gGlu-2XADO) on 71K and 242K of fusion polypeptide
B14: Compound 48 (ligand)
chain: B5 chain with P51K
modifications: Moiety A (HOOC-(CH2)16-CO-gGlu-2XADO) on 51K and 222K of fusion polypeptide
B15: Compound 50 (ligand)
chain: HGEGTFTSDVSSYLEEQAAREFIAWLVRGGGGGGGSGGGGSGGGGSGGGGKHPIPDSSPLLQFGGQVRQRYLYTDDAQQTEAHLEIREDGTVGGAADQSPESLLQLRALRPGVIQILGVRTSRFLCQRPDGALYGSLHFDPEACSFRELLLEDGYNVYQSEAHGLPLHLPGQRSPHRDPAPRGPARFLPLPGLPPALPEPPGILAPQPPDVGSSDPLSLVGGSQGRSPSYESK
modifications: Moiety A (HOOC-(CH2)16-CO-gGlu-2XADO) on 51K and 233K of fusion polypeptide
B16: Compound 51 (ligand)
chain: B1 chain with R20K, S51C, R107K, R110K, R120K, R173K, G222C, K231E
modifications: Moiety B (HOOC-(CH2)20-CO-gGlu-2XADO-EDA-CO-CH2) on 51C and 222C of fusion polypeptide
B17: Compound 52 (ligand)
chain: B1 chain with R20K, S51C, R107K, R110K, R120K, R173K, G225C, K231E
modifications: Moiety B (HOOC-(CH2)20-CO-gGlu-2XADO-EDA-CO-CH2) on 51C and 225C of fusion polypeptide
B18: Compound 54 (ligand)
chain: B1 chain with R20K, S51C, R107K, R110K, R120K, R173K, K231C
modifications: Moiety B (HOOC-(CH2)20-CO-gGlu-2XADO-EDA-CO-CH2) on 51C and 231C of fusion polypeptide
B19: Compound 63 (ligand)
chain: B1 chain with R20K, R28K, S51C, R107K, R110K, R120K, R173K, G222C, K231E
modifications: Moiety B (HOOC-(CH2)20-CO-gGlu-2XADO-EDA-CO-CH2) on 51C and 222C of fusion polypeptide
B20: Native FGF21 (ligand)
chain: HPIPDSSPLLQFGGQVRQRYLYTDDAQQTEAHLEIREDGTVGGAADQSPESLLQLKALKPGVIQILGVKTSRFLCQRPDGALYGSLHFDPEACSFRELLLEDGYNVYQSEAHGLPLHLPGNKSPHRDPAPRGPARFLPLPGLPPALPEPPGILAPQPPDVGSSDPLSMVGPSQGRSPSYAS
B21: Compound 40 (ligand)
chain: HGEGTFTSDVSSYLEEQAAREFIAWLVRGGGGAQPGAQPGAQPGAQPGAQPGAQPGAQPGAQPGAQPGAQPGAQPGAQPGAQPGAQPGAQPGAQPGAQPGAQPGAQPGAQKHPIPDSSPLLQFGGQVRQRYLYTDDAQQTEAHLEIREDGTVGGAADQSPESLLQLRALRPGVIQILGVRTSRFLCQRPDGALYGSLHFDPEACSFRELLLEDGYNVYQSEAHGLPLHLPGQRSPHRDPAPRGPARFLPLPGLPPALPEPPGILAPQPPDVGSSDPLSLVGKSQGRSPSYES
modifications: Moiety A (HOOC-(CH2)16-CO-gGlu-2XADO) on 111K and 282K of fusion polypeptide
B22: Compound 42 (ligand)
chain: HGEGTFTSDVSSYLEEQAAREFIAWLVRGGGGAQPGAQPGAQPGAQPGAQPGAQPGAQPGAQPGAQPGAQKHPIPDSSPLLQFGGQVRQRYLYTDDAQQTEAHLEIREDGTVGGAADQSPESLLQLRALRPGVIQILGVRTSRFLCQRPDGALYGSLHFDPEACSFRELLLEDGYNVYQSEAHGLPLHLPGQRSPHRDPAPRGPARFLPLPGLPPALPEPPGILAPQPPDVGSSDPLSLVGKSQGRSPSYES
modifications: Moiety A (HOOC-(CH2)16-CO-gGlu-2XADO) on 71K and 242K of fusion polypeptide

molecular target: human GLP-1 receptor (human, UniProt P43220 24-463); assay: cell-based or functional assay

GLP-1 activity (EC50, pM); CRE luciferase reporter | Binder
19.9 pM | B1
17.6 pM | B2
18.2 pM | B3
17 pM | B4
19.6 pM | B5
33.2 pM | B6
16.8 pM | B7
20.3 pM | B8
39.1 pM | B9
36.8 pM | B10
50.4 pM | B11
46.6 pM | B12
12.6 pM | B13
14.4 pM | B14
15.4 pM | B15
30.7 pM | B16
30.2 pM | B17
19 pM | B18
49.1 pM | B19

molecular target: T1, human beta-Klotho; assay: cell-based or functional assay

FGF21 activity (EC50, nM); p-ERK levels | Binder
4.9 nM | B1
4.5 nM | B2
3.9 nM | B3
4.1 nM | B4
9.1 nM | B5
19 nM | B6
10.6 nM | B20
7.3 nM | B7
13.6 nM | B8
10.6 nM | B9
17.6 nM | B10
7 nM | B11
5.5 nM | B12
4.2 nM | B13
8 nM | B21
8.4 nM | B22
20.4 nM | B14
8.7 nM | B15
4.3 nM | B16
2.4 nM | B17
3.4 nM | B18
1.2 nM | B19
